According to patent publication US9266964:

Biological target: T1, human plasma kallikrein (human, UniProt P03952 20-390; P03952 391-638)
T1 construct: two disulfide-linked chains; also called pKal; human pKal
Experiment: ELISA; signal on coated biotinylated human plasma kallikrein divided by signal on streptavidin; Fab
Text: Abbreviations used: "T/B" is the ELISA signal obtained using of the target (biotinylated plasma kallikrein) divided by the ELISA signal of the "background" (streptavidin); both of which were coated on microtiter plates. "nd" is not determined. The symbol "q" refers to the amber suppressible stop codon (TAG), which is translated as glutamine (Q) in strains of E. coli such as the TG1 cells that were used to express the Fab fragments.

T1 sequence (P03952 20-390, chain 1 of 2): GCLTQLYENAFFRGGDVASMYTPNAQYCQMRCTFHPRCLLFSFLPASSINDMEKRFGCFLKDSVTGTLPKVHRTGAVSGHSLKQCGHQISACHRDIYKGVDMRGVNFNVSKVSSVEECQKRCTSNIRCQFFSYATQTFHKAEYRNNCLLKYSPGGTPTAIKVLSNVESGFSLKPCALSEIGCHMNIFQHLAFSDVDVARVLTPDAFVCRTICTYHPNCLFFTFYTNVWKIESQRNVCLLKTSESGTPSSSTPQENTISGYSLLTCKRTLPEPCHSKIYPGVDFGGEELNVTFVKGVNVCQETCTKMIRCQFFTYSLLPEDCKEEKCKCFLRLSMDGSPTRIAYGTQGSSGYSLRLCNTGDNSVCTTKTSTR
T1 sequence (P03952 391-638, chain 2 of 2): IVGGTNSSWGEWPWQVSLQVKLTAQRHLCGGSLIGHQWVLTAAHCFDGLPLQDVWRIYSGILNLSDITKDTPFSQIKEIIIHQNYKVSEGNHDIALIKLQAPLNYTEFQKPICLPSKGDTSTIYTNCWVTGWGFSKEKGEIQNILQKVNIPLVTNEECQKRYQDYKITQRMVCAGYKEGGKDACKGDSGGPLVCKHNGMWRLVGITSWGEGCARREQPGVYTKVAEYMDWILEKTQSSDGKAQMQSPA

Human pKal ELISA (T/B)	Binder
12.6 T/B (target signal / background signal)	M11-E06 (Fab, V domains shown, Fab fragment (E. coli TG1); printed HC runs into the start of CH1) VH: EVQLLESGGGLVQPGGSLRLSCAASGFTFSQYAMHWVRQAPGKGLEWVSSIYPSGGFTLYADSVKGRFTISRDNSKNTLYLQMNSLRAEDTAMYYCARGGWLAGGELLNWGQGTLVTVSS VL: DIQMTQSPSSLSASIGDRVTISCRASRGIGTYLNWYQQHAGKAPKLLIRAASSLETGVPPRFSGSGSGTDFTLTISSLQSDDFATYYCQESFTNVYNFGQGTKLEIK
4.1 T/B (target signal / background signal)	M27-G04 (Fab, V domains shown, Fab fragment (E. coli TG1); printed HC runs into the start of CH1) VH: EVQLLESGGGLVQPGGSLRLSCAASGFTFSAYYMVWVRQAPGKGLEWVSYISPSGGQTQYADSVKGRFTISRDNSKNTLYLQMNSLRAEDTAVYYCAREAISSSSFDYWGQGTLVTVSS VL: DIQMTQSPSSLSASVGDRVTITCRASQRISYYLTWYQQKPGKVPKLLIYAASSLESGVPSRFSGSGSGTDFTLTISNLQPEDFATYYCQQAFSTPFTFGGGTKVEIK
7 T/B (target signal / background signal)	M12-C09 (Fab, V domains shown, Fab fragment (E. coli TG1); printed HC runs into the start of CH1; tied to M12-C09 by its CDRs; also called M12-009) VH: EVQLLESGGGLVQPGGSLRLSCAASGFTFSSYAMVWVRQAPGKGLEWVSSIGSSGGFTLYADSVKGRFTISRDNSKNTLYLQMNSLRAEDTAVYYCASMNLGGGDAFDIWGQGTMVTVSS VL: DIQMTQSPSSLSASVGDRVTITCRASQSIGIYLNWYHQKPGKAPNLLIYGASSLQSGVPSRFSGSGSGTDFTLTISSLQPGDFATYYCQHSYSTPFTFGGGTKVEIK
10 T/B (target signal / background signal)	M27-F11 (Fab, V domains shown, Fab fragment (E. coli TG1); printed HC runs into the start of CH1) VH: EVQLLESGGGLVQPGGSLRLSCAASGFTFSSYHMMWVRQAPGKGLEWVSSIYPSGGATMYADSVKGRFTISRDNSKNTLYLQMNSLRAEDTAMYYCARDGYHYGDYTYFQHWGQGTLVTVSS VL: DIQMTQSPSFLSASVGDRVTITCRASQGISSYLAWYQQKPGKAPKLLIYAASSLQSGVPSRFSGSGSGTDFTLTISSLQPEDFATYYCQQSYNTLRTFGPGTKVDLK
9.9 T/B (target signal / background signal)	M12-D10 (Fab, V domains shown, Fab fragment (E. coli TG1); printed HC runs into the start of CH1) VH: EVQLLESGGGLVQPGGSLRLSCAASGFTFSNYPMDWVRQAPGKGLEWVSSISSSGGWTNYADSVKGRFTISRDNSKNTLYLQMNSLRAEDTAVYYCATDTSGSYLGFDYWGQGTLVTVSS VL: not shown
4.9 T/B (target signal / background signal)	M11-G12 (Fab, V domains shown, Fab fragment (E. coli TG1); printed HC runs into the start of CH1) VH: EVQLLESGGGLVQPGGSLRLSCAASGFTFSQYPMNWVRQAPGKGLEWVSSISSSGGFTTYADSVKGRFTISRDNSKNTLYLQMNSLRAEDTAVYYCAREEQQGGFDYWGQGTLVTVSS VL: DIQMTQSPSSLSAFVGDRVSITCRASQTISVYVNWYQHKSGQAPKLLIYGASSLQSGVPSRFSGSGSGTDFTLTISSLQPEDFATYFCQQSYSIPFTFGGGTDVQIR
33.1 T/B (target signal / background signal)	M27-B01 (Fab, V domains shown, Fab fragment (E. coli TG1); printed HC runs into the start of CH1) VH: EVQLLESGGGLVQPGGSLRLSCAASGFTFSDYTMWWVRQAPGKGLEWVSSISSSGGITFYADSVKGRFTISRDNSKNTLYLQMNSLRAEDTAVYYCARSADTAMGGAFDIWGQGTMVTVSS VL: not shown
8.3 T/B (target signal / background signal)	M12-C10 (Fab, V domains shown, Fab fragment (E. coli TG1); printed HC runs into the start of CH1 and printed LC into the start of the lambda constant region (GQPK)) VH: EVQLLESGGGLVQPGGSLRLSCAASGFTFSDYEMHWVRQAPGKGLEWVSGISPSGGKTQYADSVKGRFTISRDNSKNTLYLQMNSLRAEDTAVYYCARDLKWGGRGSPDWYFDLWGRGTLVTVSS VL: QSALTQPPSVSVSPGQTASITCSGDKLGEKYVSWYQQKPGQSPVVVIYQDNKRPSGIPERFSGSNSGNTATLTISGTQAVDEADYYCQAWDSYTVVFGGGSKLTVLG
35.9 T/B (target signal / background signal)	M27-E03 (Fab, V domains shown, Fab fragment (E. coli TG1); printed HC runs into the start of CH1) VH: EVQLLESGGGLVQPGGSLRLSCAASGFTFSSYMMHWVRQAPGKGLEWVSGIYPSGGWTDYADSVKGRFTISRDNSKNTLYLQMNSLRAEDTATYYCARLVAGLDAFDIWGQGTMVTVSS VL: not shown
19 T/B (target signal / background signal)	M28-A01 (Fab, V domains shown, Fab fragment (E. coli TG1); printed HC runs into the start of CH1) VH: EVQLLESGGGLVQPGGSLRLSCAASGFTFSWYAMHWVRQAPGKGLEWVSGIYSSGGYTKYADSVKGRFTISRDNSKNTLYLQMNSLRAEDTAVYYCARDLSNGDDVFDIWGQGTMVTVSS VL: not shown
41.4 T/B (target signal / background signal)	M11-E05 (Fab, V domains shown, Fab fragment (E. coli TG1); printed HC runs into the start of CH1) VH: EVQLLESGGGLVQPGGSLRLSCAASGFTFSWYTMGWVRQAPGKGLEWVSWIYFGGLTTYADSVKGRFTISRDNSKNTLYLQMNSLRAEDTAVYYCARLGGPLDAFDIWGQGTMVTVSS VL: DIQMTQSPSSLSASVGDTVTITCRTSQTINNYLNWYQQRPGEAPKVLIYATHTLESGVPSRFSGSGSGTDFTLTIGSLQPEDFATYYCQQSFAFPYTFGQGTKVEIT
2.2 T/B (target signal / background signal)	M28-C03 (Fab, V domains shown, Fab fragment (E. coli TG1); printed HC runs into the start of CH1) VH: EVQLLESGGGLVQPGGSLRLSCAASGFTFSYYQMGWVRQAPGKGLEWVSSIYPSGGMTDYADSVKGRFTISRDNSKNTLYLQMNSLRAEDTAVYYCTRGSPWGDDAFDIWGQGTMVTVSS VL: DIQMTQSPSSLSASVGDRVTITCRASQSINFYLNWYQQKPGKAPKLLIYVASSLESGVPSRFSGSASGTEFTLTISSLQPEDFATYYCLQSYSAPYTFGQGTKVEIT
40.4 T/B (target signal / background signal)	M12-A08 (Fab, V domains shown, Fab fragment (E. coli TG1); printed HC runs into the start of CH1) VH: EVQLLESGGGLVQPGGSLRLSCAASGFTFSWYYMGWVRQAPGKGLEWVSWIVSSGGLTLYADSVKGRFTISRDNSKNTLYLQMNSLRAEDTAMYYCARTTVTTGDAFDIWGQGTMVTVSS VL: DIQMTQSPSSLSASVGDRVTITCRASQSISRYLNWYQQKPGKAPKLLIYAASTLETGVPSRFSGSGSGTDFTLTITTLQPEDFVIYYCQQSYSTPYTFGQGTKLEIK
31.4 T/B (target signal / background signal)	M27-G01 (Fab, V domains shown, Fab fragment (E. coli TG1); printed HC runs into the start of CH1) VH: EVQLLESGGGLVQPGGSLRLSCAASGFTFSLYRMFWVRQAPGKGLEWVSSIWSSGGPTMYADSVKGRFTISRDNSKNTLYLQMNSLRAEDTAVYYCAREYPSTYYFDYWGQGTLVTVSS VL: DIQMTQSPSSLSASVGDRVTITCRASQSISTYLNWYQQKPGKAPKLLIYGASSLQSGVPSRFSGSGSGTDFTLTISSLQPEDFTIYYCQQSYSDPYTFGQGTKLDIK
12.4 T/B (target signal / background signal)	M27-H10 (Fab, V domains shown, Fab fragment (E. coli TG1); printed HC runs into the start of CH1) VH: EVQLLESGGGLVQPGGSLRLSCAASGFTFSAYQMAWVRQAPGKGLEWVSVIYSSGGYTDYADSVKGRFTISRDNSKNTLYLQMNSLRAEDTAVYYCARHNWNDGAFDIWGQGTMVTVSS VL: DIQMTQSPSSLSASVGDRVTITCRASQSISNYLNWYQQKPGKAPKFLIYAASSLQSGVPSRFSGSGSGTDFTLSISSLQPEDFATYYCQQSYSTPQTFGQGTKVEMK
48 T/B (target signal / background signal)	M12-E06 (Fab, V domains shown, Fab fragment (E. coli TG1); printed HC runs into the start of CH1) VH: EVQLLESGGGLVQPGGSLRLSCAASGFTFSQYKMLWVRQAPGKGLEWVSGIGPSGGLTAYADSVKGRFTISRDNSKNTLYLQMNSLRAEDTAVYYCARAPWFGELGMDVWGQGTTVTVSS VL: DIQMTQSPSSLSASVGDRVSITCRASQSISTYLNWYQHKPGKAPTLLIYGAFSLQSGVPSRFSGSGSGTDFALTISSLQPEDFATYYCQQSHSTPPTFGQGTRVEIK
23.6 T/B (target signal / background signal)	M11-G09 (Fab, V domains shown, Fab fragment (E. coli TG1); printed HC runs into the start of CH1) VH: EVQLLESGGGLVQPGGSLRLSCAASGFTFSLYNMTWVRQAPGKGLEWVSYIYPSGGGTHYADSVKGRFTISRDNSKNTLYLQMNSLRAEDTAVYYCARDTGFWSADAFDIWGQGTMVTVSS VL: DIQMTQSPSSLSASVGDRVTITCRTSQGINHYLNWYQQKPGKAPKILVFAASELQTGVPSRFSGTGSGTSYTLTITSLQPEDVATYYCQQTYTSPYTFGQGTKLEVK
2.2 T/B (target signal / background signal)	M27-G09 (Fab, V domains shown, Fab fragment (E. coli TG1); printed HC runs into the start of CH1) VH: EVQLLESGGGLVQPGGSLRLSCAASGFTFSEYDMAWVRQAPGKGLEWVSYIVSSGGFTSYADSVKGRFTISRDNSKNTLYLQMNSLRAEDTAVYYCTTWAGWIAAADYWGQGTLVTVSS VL: DIQMTQSPSSVSASVGDRITITCRTRQSISNYLNWYQQKPGEPPKLLIFAASSLQSGVPSRFSGSGTGTEFTLTISSLQPEDLAIYYCQQSYDIPFTFGQGTKLEIK
10.5 T/B (target signal / background signal)	M27-F04 (Fab, V domains shown, Fab fragment (E. coli TG1); printed HC runs into the start of CH1) VH: EVQLLESGGGLVQPGGSLRLSCAASGFTFSWYPMTWVRQAPGKGLEWVSSIGPSGGQTIYADSVKGRFTISRDNSKNTLYLQMNSLRAEDTAVYYCTTEYGDYGGGFDPWGQGTLVTVSS VL: not shown
18 T/B (target signal / background signal)	M12-B04 (Fab, V domains shown, Fab fragment (E. coli TG1); printed HC runs into the start of CH1) VH: EVQLLESGGGLVQPGGSLRLSCAASGFTFSLYSMYWVRQAPGKGLEWVSRIRPSGGGTVYADSVKGRFTISRDNSKNTLYLQMNSLRAEDTAVYYCARDPLYSSGDVWGQGTTVTVSS VL: DIQMTQSPSSLSASVGDRVTITCRASQGIRNDLGWYQHKPGKAPKLLIYAASILQSGVPSRFSGTASGTDFTLTISSLQPEDFATYFCLQDYEYPLTFGGGTKLDIK
2.3 T/B (target signal / background signal)	M27-B12 (Fab, V domains shown, Fab fragment (E. coli TG1); printed HC runs into the start of CH1) VH: EVQLLESGGGLVQPGGSLRLSCAASGFTFSWYQMMWVRQAPGKGLEWVSSISPSGGITEYADSVKGRFTISRDNSKNTLYLQMNSLRAEDTAVYYCARDRSSGWYYYGMDVWGQGTTVTVSS VL: QYELTQPPAVSVSPGQTATITCSGDKLGDEYAAWYQQKPGQSPVLVIYQDRKRPSGIPERFSGSNFGNTATLTITGTQVMDEADYYCQAWGKRNVVFGGGTKLTVL
3.2 T/B (target signal / background signal)	M27-A10 (Fab, V domains shown, Fab fragment (E. coli TG1); printed HC runs into the start of CH1) VH: EVQLLESGGGLVQPGGSLRLSCAASGFTFSWYRMDWVRQAPGKGLEWVSSIWPSGGLTSYADSVKGRFTISRDNSKNTLYLQMNSLRAEDTAVYYCARGWAPGGDAFDIWGQGTMVTVSS VL: DIQMTQSPSSLSASVGDRVTITCRASQSISAYLNWYQQKPGKAPQLLMYGVGSLQSGVPSRFSGSGSGTDFTLTISSLQPEDFATYFCQQGYTTPVTFGGGTKVEIK
3.7 T/B (target signal / background signal)	M28-D02 (Fab, V domains shown, Fab fragment (E. coli TG1); printed HC runs into the start of CH1; The LC is printed with an amber codon 'q' (QDIqMTQ), written here as Q) VH: EVQLLESGGGLVQPGGSLRLSCAASGFTFSWYPMQWVRQAPGKGLEWVSYIYPSGGGTDYADSVKGRFTISRDNSKNTLYLQMNSLRAEDTATYYCATSSGWLGDAFDIWGQGTMVTVSS VL: DIQMTQSPSSLSASEGDMVTITCRTSRRIGTYLNWYQQKPGKAPKLLIYGASSLQSGVPSRFSGSGSGTDFTLTVSSLQPEDVGTYYCQQSFSSPWTFGPGTKVEIK
